The values below come from patent US20050048066A1, “Identification of potential immunodominant acetylcholine receptor alpha subunit” (priority 2000, published 2005).

The target of assay [1] is solubilized HLA-DR3 (a mix of DRB1*0301 and DRB3*0101) (human). Nature of the assay: DELFIA competitive binding vs biotinylated MBP 84-102, solubilized HLA-DR3, pH 5.5.
Assay [2] has the same target. Briefly: competition binding. On the set-up: unit not given beside the values.
Assay [3] deals with solubilized HLA-DR2 (a mix of DRB1*1501 and DRB5*0101) (human). Nature of the assay: DELFIA competitive binding vs biotinylated MBP 84-102, solubilized HLA-DR2, pH 5.5.
The target in assay [4] is solubilized HLA-DR3 (a mix of DRB1*0301 and DRB3*0101) (human). Nature of the assay: competition binding.
In assay [5] the target is solubilized HLA-DR2 (a mix of DRB1*1501 and DRB5*0101) (human). Briefly: competition binding.

The term IC50 denotes the midpoint of a concentration-inhibition curve. “AChRα peptide 204-217 (from UniProt P02708 224-237)” showed an IC50 in assay [1] of 71.3 µM.
With “AChRα peptide 7-22 (from UniProt P02708 27-42)”, the IC50 in assay [1] was 6.15 µM; in assay [2], 6153 ?.
Turning to “AChRα peptide 36-49 (from UniProt P02708 56-69)”, the IC50 in assay [3] was 11 µM; in assay [1], 7.3 µM; in assay [2] it was 7299 ?.
The substance “AChRα peptide 419-437 (from UniProt P02708 439-457)” had an IC50 in assay [4] of 48.9 µM.
For the substance “AChRα peptide 310-327 (from UniProt P02708 330-347)”, in assay [5], the 50% inhibitory concentration (IC50) was 4.19 µM.
The substance “AChRα peptide 113-126 (from UniProt P02708 133-146)” gave a half-inhibitory concentration (IC50) in assay [4] of 73 µM.
With “AChRα peptide 145-163 (from UniProt P02708 165-183)”, the values for the IC50 in assay [4] and in assay [2] were 2 µM and 2002 ?, respectively.
As for “AChRα peptide 195-212 (from UniProt P02708 215-232)”, the IC50 is 36.8 µM in assay [5], 6.04 µM in assay [4] and 6036 ? in assay [2].
